T1: GST-p50^Cdc37 (human, UniProt Q16543 1-378)
T1 construct: p50 Cdc37, human, full length, residues 1-378, in pGEX6P-1; also called GST-tagged p50^Cdc37; source: E. coli BL21 (DE3), purified (glutathione sepharose, size exclusion); not shown: GST, N-terminal, kept
T1 sequence (looked up): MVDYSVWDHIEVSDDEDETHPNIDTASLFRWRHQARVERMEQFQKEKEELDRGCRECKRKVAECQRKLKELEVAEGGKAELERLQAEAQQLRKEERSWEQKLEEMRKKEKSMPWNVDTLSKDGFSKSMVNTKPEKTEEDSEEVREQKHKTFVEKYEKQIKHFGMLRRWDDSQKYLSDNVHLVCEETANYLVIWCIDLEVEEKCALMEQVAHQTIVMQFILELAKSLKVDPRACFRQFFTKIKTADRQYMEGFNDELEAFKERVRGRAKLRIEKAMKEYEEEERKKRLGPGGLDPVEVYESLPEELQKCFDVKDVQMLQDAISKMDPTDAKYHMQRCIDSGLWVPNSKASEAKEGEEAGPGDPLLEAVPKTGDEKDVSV

B1: human full-length p50^Cdc37 (residues 1-378) (natural protein, UniProt Q16543 1-378, looked up)
chain: T1 sequence (looked up)
notes: p50 Cdc37, human, full length, residues 1-378; Eluted as a dimer in size-exclusion chromatography; source: tag cleaved with PreScission protease
B2: CK2-phosphorylated human full-length p50^Cdc37 (natural protein, UniProt Q16543 1-378, looked up)
chain: T1 sequence (looked up)
modifications: phosphoserine at 13 (shown by Western blot)
notes: p50 Cdc37, human, full length, residues 1-378, phosphorylated by CK2α; also called (p)p50^Cdc37; source: E. coli Tuner (DE3), purified, then phosphorylated in vitro with purified CK2α and ATP
B3: human Hsp90β (1-724 Δ220-275) (natural protein)
chain: not shown
notes: Hsp90β, human, residues before the deleted charged linker 220-275 of the construct 1-724; four glycine residues that replace the deleted section 220-275; Hsp90β, human, residues after the deleted charged linker 220-275 of the construct 1-724; Gene synthesised by GeneArt, codon optimised for E. coli; pET28a; also called ΔHsp90; ΔHsp90β
B4: human Hsp90α (1-732 Δ226-283) (natural protein)
chain: not shown
notes: Hsp90α, human, residues before the deleted section 226-283 of the construct 1-732; four glycine residues that replace the deleted section 226-283; Hsp90α, human, residues after the deleted section 226-283 of the construct 1-732; Gene synthesised by GeneArt; pET28a; also called ΔHsp90α
B5: human N-terminal Hsp90β (1-219) (domain or fragment)
chain: not shown
notes: Hsp90β, human, N-terminal domain, residues 1-219; Gene synthesised by GeneArt; pET28a; also called N-Hsp90; Hsp90β-N

Common to all, as to details: both partners purified
Test [1] has as its target T2, human full-length Hsp90β (human, UniProt P08238 1-724).
T2 construct: Hsp90β, human, full length, subcloned from T47D cell line cDNA into pET28a; Eluted as a dimer in size-exclusion chromatography; No step that removes the His6 tag is described; the tag is detected in the ELISA; also called hHsp90β-FL; His6-Hsp90
Kind of test: SEC; analytical Superdex200 10/300 GL, room temperature, 0.3 mL/min; 85 µM protein in 50 mM HEPES pH 7.5, 50 mM KCl, 5 mM MgCl2, 1 mM DTT; fractions on SDS-PAGE.

For test [2], the target named is T2, human full-length Hsp90β. Kind of test: ITC; p50^Cdc37 (200 µM) titrated into Hsp90 (20 µM); 50 mM HEPES pH 7.5, 10 mM MgCl2, 30 °C.
The target of test [3] is T3, CK2-phosphorylated human full-length Hsp90β (human, UniProt P08238 1-724, phosphoserine at 255 (shown by Western blot); Ser226 named as a CK2 site, its phosphorylation could not be verified).
T3 construct: Hsp90β, human, full length, phosphorylated by CK2α; only pSer255 was checked; also called (p)Hsp90; h(p)Hsp90β-FL; source: E. coli BL21 Star (DE3), purified, then phosphorylated in vitro with purified CK2α and ATP
Described as above.

Test [4] has as its target B1. Described as above.
Test [5] deals with T1, GST-p50^Cdc37. Description: ELISA; GST-p50^Cdc37 (4 µM) immobilised on glutathione-coated plates; His6-Hsp90 (4 µM) pre-incubated with nucleotides and/or inhibitors in 5% DMSO, detected with anti-His6; 50 mM HEPES pH 7.5, 150 mM NaCl, 10 mM MgCl2, 0.05% Tween-20, 0.1% BSA; room temperature.

T3 sequence (P08238 whole entry): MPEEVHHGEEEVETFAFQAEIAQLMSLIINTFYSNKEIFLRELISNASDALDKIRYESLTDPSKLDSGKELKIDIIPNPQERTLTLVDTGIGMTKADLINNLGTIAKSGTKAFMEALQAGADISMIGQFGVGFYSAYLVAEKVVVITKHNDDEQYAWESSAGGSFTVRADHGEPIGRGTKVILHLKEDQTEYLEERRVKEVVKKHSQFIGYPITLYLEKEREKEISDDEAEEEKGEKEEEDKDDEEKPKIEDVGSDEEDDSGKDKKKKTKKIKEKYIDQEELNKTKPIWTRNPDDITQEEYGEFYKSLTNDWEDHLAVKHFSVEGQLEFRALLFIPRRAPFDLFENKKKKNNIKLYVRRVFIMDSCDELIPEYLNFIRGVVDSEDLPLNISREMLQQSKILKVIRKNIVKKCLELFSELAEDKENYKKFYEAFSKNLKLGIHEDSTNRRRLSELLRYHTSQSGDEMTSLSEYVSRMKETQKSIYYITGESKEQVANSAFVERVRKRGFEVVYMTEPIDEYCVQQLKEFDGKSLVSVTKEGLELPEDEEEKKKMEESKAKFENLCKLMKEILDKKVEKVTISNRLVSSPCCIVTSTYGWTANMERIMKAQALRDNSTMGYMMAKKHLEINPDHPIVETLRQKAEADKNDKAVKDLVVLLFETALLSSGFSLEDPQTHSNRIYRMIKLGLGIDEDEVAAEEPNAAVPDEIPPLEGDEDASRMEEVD

For the molecule B1, the “stoichiometry N” value in test [1] was 1. Besides, the dissociation constant (Kd) in test [2] is 1.2 µM; in test [3] it was 1.7 µM. B2: the values for the Kd in test [2] and in test [3] were 5.1 µM and 8.6 µM, respectively. Molecule B3 yielded a Kd in test [4] of 1.1 µM. B4: the binding result in test [5] was “binds”. B5 had a Kd in test [4] of 4.4 µM.

Source of the values: paper PMC4601640, “Stability of the Human Hsp90-p50^Cdc37 Chaperone Complex against Nucleotides and Hsp90 Inhibitors, and the Influence of Phosphorylation by Casein Kinase 2” (Molecules, 2015).
